This note sets out measurements from patent US6391584B1, “Expression-cloning method for identifying target proteins for eukaryotic tyrosine kinases and novel target proteins” (New York University Medical Center, priority 1991, dated 2002).

The target in assay [1] is trpE/GAP SH2 fusion protein (GAP residues 171-448) (UniProt P00895). Kind of assay: filter binding: 32P-labelled probe on fusion protein spotted on nitrocellulose.
The target in assay [2] is tyrosine phosphorylated wild-type EGF receptor, full length (human) (UniProt P00533). Kind of assay: immunoprecipitated autophosphorylated EGFR, anti-PLC-γ blot with 125I-protein A, bands counted.
Assay [3] has as its target T1, tyrosine phosphorylated EGFR-C (intracellular domain of the EGF receptor, baculovirus expressed) (human, UniProt P00533 669-1210, tyrosine autophosphorylated with MnCl2 and ATP; positions not given).
T1 construct: domain: intracellular domain; Produced in baculovirus-infected SF9 cells; also called EGFR cytoplasmic domain; phosphorylated kinase
Kind of assay: EGFR-C immunoprecipitated with antibody C, anti-trpE immunoblot. The procedure:
In FIG. 12A, EGFR-C (0.5 μg) was immunoprecipitated with antibody C and washed. […] The immunoprecipitates were separated on a 10% SDS-gel, transferred to nitrocellulose and immunoblotting was performed with anti-trpE. […] Phosphorylated or non-phosphorylated EGFR-C (0.5 μg) was then added and allowed to bind as above. After washing, samples were separated on a 10% gel, transferred to nitrocellulose and probed with antibody C. The two samples on the right represent 0.5 μg of phosphorylated and non-phosphorylated kinase loaded directly onto the gel (exposure time: 2 h).

The target of a further assay is T2, EGFR-C (Homo sapiens, UniProt P00533).
T2 construct: EGFR-C represents a deletion mutant containing the cytoplasmic domain of the EGF receptor produced by baculovirus-infected SF9 cells; made in house; host or cells: baculovirus-infected SF9 insect cells
Kind of assay: Binding of trpE/GAP SH2 fusion protein to baculovirus expressed EGFR-C (immunoprecipitation / immunoblot). The note with it: phosphorylated vs non-phosphorylated EGFR-C, FIG. 12A. The procedure: FIGS. 12A and 12B are representations of a gel pattern showing binding of EGFR-C to trpE proteins. In FIG. 12A, EGFR-C (0.5 μg) was immunoprecipitated with antibody C and washed. MnCl2 alone or MnCl2 and ATP were then added to facilitate autophosphorylation of TrpE or trpE/GAP SH2 (approximately 2 μg). The immunoprecipitates were separated on a 10% SDS-gel, transferred to nitrocellulose and immunoblotting was performed with anti-trpE. For comparison, about 0.1 μg of trpE or trpE/GAP SH2 lysate was loaded directly on to the gel (right panel of 12A). In FIG. 12B, trpE or trpE/GAP SH2 was immunoprecipitated with anti-trpE antibodies and washed. Phosphorylated or non-phosphorylated EGFR-C (0.5 μg) was then added and allowed to bind as above. After washing, samples were separated on a 10% gel, transferred to nitrocellulose and probed with antibody C. The two samples on the right represent 0.5 μg of phosphorylated and non-phosphorylated kinase loaded directly onto the gel (exposure time: 2 h). The preparation of trpE fusion proteins containing the GAP SH2 domain (GAP residues 171-448, 10 FIG. 9B) has been described by Moran, M. F. et al., Proc. Natl. Acad. Sci. USA 87: 8622-8626 (1990). Bacterial lysates containing trpE/GAP SH2 fusion proteins were prepared by resuspending 1 g of bacteria in 3 ml of 50 mM Tris pH 7.5, 0.5 mm EDTA, 0.1 mm PMSF. […]

As to “tyrosine phosphorylated C-terminal CNBr fragment of the EGF receptor (EGFR 984/1186) (from UniProt P00533 1008-1210)”, the amount of spotted fusion protein at which binding was still detected in assay [1] is below 5 ng. For the molecule “PLC-γ (phosphatidylinositol specific phospholipase C-γ), non-phosphorylated, from 3TP1 cell lysate (enzyme)”, in assay [2], the percent remaining bound after three washes with HNTG came to 50%.

B1: trpE protein alone (other, UniProt P00895 1-323, looked up)
chain: MQTQKPTLELLTCEGAYRDNPTALFHQLCGDRPATLLLESADIDSKDDLKSLLLVDSALRITALGDTVTIQALSGNGEALLALLDNALPAGVESEQSPNCRVLRFPPVSPLLDEDARLCSLSVFDAFRLLQNLLNVPKEEREAMFFGGLFSYDLVAGFEDLPQLSAENNCPDFCFYLAETLMVIDHQKKSTRIQASLFAPNEEEKQRLTARLNELRQQLTEAAPPLPVVSVPHMRCECNQSDEEFGGVVRLLQKAIRAGEIFQVVPSRRFSLPCPSPLAAYYVLKKSNPSPYMFFMQDNDFTLFGASPESSLKYDATSRQIEI
notes: Control for the trpE/GAP SH2 fusion; also called bacterial protein alone
Regarding B1, in assay [3], the binding result is on record as “no binding”.

B2: trpe protein: bacterial trpE protein alone, used as control for the fusion protein (protein)
chain: B1 chain
With B2, in the assay with EGFR-C, the “binding to EGFR-C” value is listed as “did not bind”.

B3: trpE/GAP SH2 fusion protein: bacterially expressed trpE fusion protein containing the GAP SH2 domain (GAP residues 171-448) (protein)
chain: MQTQKPTLELLTCEGAYRDNPTALFHQLCGDRPATLLLESADIDSKDDLKSLLLVDSALRITALGDTVTIQALSGNGEALLALLDNALPAGVESEQSPNCRVLRFPPVSPLLDEDARLCSLSVFDAFRLLQNLLNVPKEEREAMFFGGLFSYDLVAGFEDLPQLSAENNCPDFCFYLAETLMVIDHQKKSTRIQASLFAPNEEEKQRLTARLNELRQQLTEAAPPLPVVSVPHMRCECNQSDEEFGGVVRLLQKAIRAGEIFQVVPSRRFSLPCPSPLAAYYVLKKSNPSPYMFFMQDNDFTLFGASPESSLKYDATSRQIEIIPLTAPPTNQWYHGKLDRTIAEERLRQAGKSGSYLIRESDRRPGSFVLSFLSQMNVVNHFRIIAMCGDYYIGGRRFSSLSDLIGYYSHVSCLLKGEKLLYPVAPPEPVEDRRRVRAILPYTKVPDTDEISFLKGDMFIVHNELEDGWMWVTNLRTDEQGLIVEDLVEEVGREEDPHEGKIWFHGKISKQEAYNLLMTVGQVCSFLVRPSDNTPGDYSLYFRTNENIQRFKICPTPNNQFMMGGRYYNSIGDIIDHYRKEQIVEGYYLKEPVPMQDQEQ
As to B3, the “binding to EGFR-C” value with EGFR-C is “bound only to the tyrosine phosphorylated EGFR-C”.
